Changes are numbered by the printed parent chain.
T1: CTLA-4-hFc (immunogen A; hFc-labeled CTLA-4 extracellular domain protein) (human, UniProt P16410 36-161)
T1 construct: range 36-161; Made in HEK293 cells, purified on protein A; also called CLTA-4-hFc; CTLA-4 protein; not shown: human IgG Fc fragment (hFc) of the pCpC vector
T1 sequence (looked up): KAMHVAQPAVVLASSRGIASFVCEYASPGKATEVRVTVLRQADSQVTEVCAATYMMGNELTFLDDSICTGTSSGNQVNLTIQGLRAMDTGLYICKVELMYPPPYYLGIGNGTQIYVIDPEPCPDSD

B1: 97A8D1 fully human CTLA-4 antibody (human IgG1, kappa) (antibody, V domains shown)
VH: QVQLVESGGGVVQPGRSLRLSCVASGFTFNNYGMNWVRQAPGKGLEWVAVIWYGGRNKFYADSVKGRFTISRDNSKNTLYLEMNSLRAEDTAVYYCARADWGGWFDPWGQGTLVTVSS
VL: EIVLTQSPGTLSLSPGERATLSCRASQSVSSTYLAWYQQKPGQAPRLLIHGAFSRATGIPDRFSGSGSGPDFTLTISRLEPEDFAVYYCQQYGTSPFTFGPGTKVDIK
notes: also called mAb49; mAb049
B2: 40C4C6 fully human CTLA-4 antibody (human IgG1, kappa) (antibody, V domains shown)
VH: QVQLVESGGGVVQPGRSLRLSCAASGFTFSSYGMHWVRQAPGKGLEWVAVIWYDGRNKYYADSVKGRFTISRDNSKNTLYLQMNSLRAEDTAVYYCARASGSYSYYFDYWGQGTLVTVSS
VL: DIQMTQSPSSLSASVGGRVTITCRASQSISSFLNWYQHELGKAPKLLIYGASSLQSGVPSRFSGSGSGTDFTLTISSLQPEDFATYYCQQTYSTPFTFGPGTKVDIK
notes: also called mAb09; mAb009
B3: 31C12F3 fully human CTLA-4 antibody (human IgG1, kappa) (antibody, V domains shown)
VH: QVQLVESGGGVVQPGRSLILSCAASGFTFSSYGMHWVRQAPGKGLEWVAVVWYDGSNKYYADSVKGRFTISRDNSKNTLYLQMSSLRAEDTAVYYCARGGIVVPGLFEYWGQGSLVTVSS
VL: DIQMTQSPSSLSASVGDRVAITCRTSQSISNLLNWYQQKPGKAPELLIYAPSSFQSGVPSRFRGSGSGTDFTLTISSLQPEDFATYYCQQSYSTPFTFGPGTKVDIK
notes: also called mAb010
B4: 92C8B6 fully human CTLA-4 antibody (human IgG1, kappa) (antibody, V domains shown)
VH: QVQLVESGGGVVQPGRSLRLSCAASGFTFSNFGMHWVRQAPGKGLEWVAVIWYDGSNKYYADSVKGRFTISRDNSKNTLFLQMNGLRAEDTAVYYCAKGGILMAGTLDYWGQGTLVTVSS
VL: B3 VL with A20T, T25A, I29V, N31T, L32Y, E45K, P51A, R63S, Y87F
notes: also called mAb42; mAb042

Biological target: T2, monkey CTLA-4, full length, on transfected HEK293 cells (monkey)
T2 construct: whole, on cells; also called cCTLA-4; HEK293-cCTLA-4
Experiment: FACS, monkey CTLA-4 expressing cells
Excerpt: The pIRES plasmid with the monkey-derived CTLA-4 full-length gene was transfected into the HEK293 cell line to construct a HEK293 stable cell line containing monkey CTLA-4 (herein referred to as HEK293-cCTLA-4 stable cell line), wherein the database accession number of the monkey CTLA-4 nucleotide sequence is XM_005574014.1. The HEK293-hCTLA-4 stable cell line and HEK293-cCTLA-4 stable cell line were expanded in a T-75 cell culture flask to a 90% confluence. The medium was aspirated, and the cells were washed with HBSS buffer (Hanks Balanced Salt Solution, purchased from Invitrogen) twice, then treated with an enzyme-free cell dissociation fluid (Versene solution, purchased from Life technology) and the cells were collected. The cells were washed with HBSS buffer twice. After counted, the cells were diluted with HBSS buffer to 2×10⁶ cells per ml, added with 1% goat serum blocking solution, wherein the percentage was the mass percantage. Cells were incubated on ice for 30 minutes, then washed twice with HBSS buffer by centrifugation. The collected cells were suspended in the FACS buffer (HBSS containing 1% BSA, wherein the percentage was the mass percantage) to 2×10⁶ cells/ml, added as 100 microliters per well to a 96-well FACS reaction plate, added with 100 microliters per well of the purified CTLA-4 antibody sample to be tested, incubated on ice for 2 hours. The plate was washed twice with the FACS buffer by centrifugation, added with 100 microliters of fluorescent (Alexa 488)-labeled secondary antibodies (purchased from Invitrogen) per well, and incubated on ice for 1 hour. The plate was washed 3 times with FACS buffer by centrifugation, added with 100 μl fixative solution [4% (v/v) Paraformaldehyde] per well to suspend the cells. 10 minutes later, it was washed 2 times with FACS buffer by centrifugation. The cells were suspended with 100 microliters of FACS buffer, FACS (FACS Calibur, purchased from BD) was used for detection and the results were analyzed.

MFI at 0.000128 nM	MFI at 0.0128 nM	MFI at 0.064 nM	MFI at 0.32 nM	MFI at 1.6 nM	MFI at 8 nM	MFI at 40 nM	MFI at 200 nM	Binder
2	23	67	225	513	754	910	831	B1
2	23	69	219	421	619	626	643	B2
2	34	98	261	455	654	712	668	B3
2	22	68	208	465	722	800	711	B4

Biological target: T1, CTLA-4-hFc (immunogen A; hFc-labeled …)
Experiment: receptor-ligand blocking assay: CTLA-4 protein, antibody titrated, blocked ligand B7.1, inhibition (%)
Procedure: CTLA-4 extracellular domain protein (CTLA-4-hFc) was diluted with PBS to a final concentration of 1.0 μg/mL, and then added to a 96-well ELISA plate as 100 μl per well. The plate was covered with a plastic film and incubated overnight at 4° C. The plate was washed twice with plate washing solution [PBS containing 0.01% (v/v) Tween 20] on the next day, and added with blocking solution [PBS containing 0.01% (v/v) Tween 20 and 1% (w/w) BSA] and blocked at room temperature for 2 hours. […] After 2 hours, the plate was washed 3 times with a plate washing solution [PBS containing 0.01% (v/v) Tween 20]. HRP (horseradish peroxidase) labeled avidin diluent (purchased from Sigma) was added 100 microliters per well, and after the plate was incubated for 2 hours at 37° C., it was washed with plate washing solution [PBS containing 0.01% (v/v) Tween 20] for 3 times. […] TMB substrate was added to each well. After incubated at room temperature for 30 minutes, the plate was added with […] stop solution (1.0N HCl) to each well. An ELISA plate reader (SpectraMax 384plus, Molecular Device) was used to read the A450 nm value.

IC50 (read off the curve)	Binder
1 to 2 nM	B1
1 to 2 nM	B4

Reference: patent US20210324080A1 (JIANGSU HUAIYU PHARMACEUTICAL, published 2021)
